The values that follow come from PMC11843584.

Experiment [1] has as its target Cleaved TEV-BID (p7 and tBID domains after TEV protease cleavage) (human) (UniProt P55957). Kind of experiment: thioflavin T fluorescence; 5 μM protein with 50 μM peptide, ThT emission spectra against protein alone, peptide alone and buffer.
In experiment [2] the target is BID (BH3-interacting domain death agonist), N-terminal His6-tagged, wild type (human) (UniProt P55957). Kind of experiment: light-scattering titration; peptide titrated into 5 μM BID, scattered photons of a 280-nm beam; 20 mM sodium acetate pH 6.3; also at 10, 24 and 37 °C, with 0.25% or 1% OG, and in 20 mM potassium phosphate pH 5.5 to 8.0.

Chain of UniProt P55957 (P55957 whole entry, the tested form may be a part): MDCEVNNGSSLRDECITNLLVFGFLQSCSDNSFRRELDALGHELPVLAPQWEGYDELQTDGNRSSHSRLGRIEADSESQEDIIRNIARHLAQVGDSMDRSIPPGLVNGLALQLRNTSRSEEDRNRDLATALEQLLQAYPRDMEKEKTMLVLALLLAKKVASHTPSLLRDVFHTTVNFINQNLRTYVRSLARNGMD

In the case of Humanin (HN), wild-type peptide, the increase in ThT fluorescence against WT BID in experiment [1] was 15%. Moreover, in experiment [2], the fold increase in light scattering at pH 8.0 came to 8 fold, the fold increase in light scattering with 1% (w/v) OG against no detergent was 5 fold, the fold increase in scattered photons at 37 °C against 24 °C is 2.5 fold and the fold increase in scattered photons at neutral pH against pH 6.0 was 4 fold. In experiment [2], the protein-to-peptide ratio at the plateau of scattered photons (protein to peptide) came to 2.
